Results reported in patent US20260234247A1 (published 2026).

Key:
[1] = biological target: T1, human LILRB1 on CHOK1 cells (human, UniProt Q8NHL6 24-650); assay: cell-based RBA (FACS): blocking of HLA-G binding to CHOK1-hLILRB1 cells
T1 construct: whole, on cells; also called CHOK1-hLILRB1; CHOK1-LILRB1

[2] = biological target: T1, human LILRB1 on CHOK1 cells; assay: FACS binding, CHOK1-hLILRB1 cells
[3] = biological target: T2, human LILRB2 on CHOK1 cells (human, UniProt Q8N423 22-597); assay: FACS binding, CHOK1-hLILRB2 cells
T2 construct: whole, on cells; also called CHOK1-hLILRB2; CHOK1-LILRB2
T2 sequence (Q8N423 22-597): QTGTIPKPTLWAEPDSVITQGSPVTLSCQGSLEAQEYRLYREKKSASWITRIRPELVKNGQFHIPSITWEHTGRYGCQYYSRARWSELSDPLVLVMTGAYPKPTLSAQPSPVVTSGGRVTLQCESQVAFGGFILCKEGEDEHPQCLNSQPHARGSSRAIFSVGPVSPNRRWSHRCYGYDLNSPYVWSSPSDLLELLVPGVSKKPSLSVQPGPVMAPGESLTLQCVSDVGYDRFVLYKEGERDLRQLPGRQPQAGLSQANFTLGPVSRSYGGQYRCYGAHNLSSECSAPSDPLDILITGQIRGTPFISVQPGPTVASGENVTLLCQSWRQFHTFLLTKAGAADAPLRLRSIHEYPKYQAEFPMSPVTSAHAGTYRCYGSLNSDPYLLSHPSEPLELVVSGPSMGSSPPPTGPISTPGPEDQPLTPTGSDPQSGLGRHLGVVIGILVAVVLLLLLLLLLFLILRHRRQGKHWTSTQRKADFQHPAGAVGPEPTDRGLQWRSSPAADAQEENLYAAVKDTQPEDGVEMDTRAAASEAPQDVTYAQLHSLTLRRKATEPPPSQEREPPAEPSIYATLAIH

T1 sequence (Q8NHL6 24-650): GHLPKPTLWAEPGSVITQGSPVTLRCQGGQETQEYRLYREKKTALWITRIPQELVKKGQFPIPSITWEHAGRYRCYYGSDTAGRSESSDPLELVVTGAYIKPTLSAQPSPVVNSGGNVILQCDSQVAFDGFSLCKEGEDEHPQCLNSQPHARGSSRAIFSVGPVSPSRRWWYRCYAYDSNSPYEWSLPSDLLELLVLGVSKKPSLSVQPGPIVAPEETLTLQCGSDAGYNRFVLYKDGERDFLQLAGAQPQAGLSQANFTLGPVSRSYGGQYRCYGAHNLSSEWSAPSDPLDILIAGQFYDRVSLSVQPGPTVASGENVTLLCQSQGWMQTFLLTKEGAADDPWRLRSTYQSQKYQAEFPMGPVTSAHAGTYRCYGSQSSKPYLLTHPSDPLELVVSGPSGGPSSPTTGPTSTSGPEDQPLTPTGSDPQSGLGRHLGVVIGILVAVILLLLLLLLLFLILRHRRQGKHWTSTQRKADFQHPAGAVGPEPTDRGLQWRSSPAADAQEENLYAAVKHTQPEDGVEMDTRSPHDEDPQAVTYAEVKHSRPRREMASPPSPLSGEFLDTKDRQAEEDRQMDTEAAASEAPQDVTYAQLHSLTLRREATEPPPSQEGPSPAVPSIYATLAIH

Binder | EC50 [2] [nM] | binding result [3] | also measured
LK-RB1-1 (antibody, human IgG4 S228P, kappa, V domains shown) VH: QIQLVQSGPELKKPGETVKISCKASGYSFTNFGMSWVKQAPGKALKWMGWINTYSGVPTYADDFKGRFAFSLETSANTAYLQINNLKNEDSATYFCARRRRTFDGYLCFDYWGQGATLTVSS VL: QLVLTQSSSASFSLGASAKLTCTLSSQHSTYSIDWYQQQPLKPPKYVMELKTDGSHRTGDGIPDRFSGSSSGADRYLSISNIQPEDEAIYICGVGDTIKEQFVYVFGGGTKVTVLR | 0.17 | no binding | EC50 [1]: 0.32 nM; Top Inhibition (%) [1]: 78%
LK-RB1-17 (antibody, human IgG4 S228P, kappa, V domains shown) VH: QVQLQQPGAELVKPGASVKLSCEASGYTFTNYWIHWVKQRPGRGLEWIGRIAPNSGGTKYNEKFKTRATLTVDKASTTAYMQLSSLTSEDSAVYYCARLDGSPYYFDYWGQGTTLTVSS VL: DIVMTQSQKFMSTSIGDRVSVTCKASQNVDTNVAWYQQKPGQSPKALIYSASYRYSGIPDRFTGSGSGTDFTLTISNVQSEDLAEYFCQQYNSYPYTFGGGTKLEIKR | 5.53 |  | EC50 [3]: 47.4 nM
LK-RB1-28 (antibody, human IgG4 S228P, kappa, V domains shown) VH: QVQLQQSGPELVKPGTSVKMSCKASGYTFTSHYIHWMKQRPGQGLDWIGWIYPGDGHTKYHEKFKGKATLTADTSSITAYMQLSLLTSEDSAVYYCVYYSDSWFPYWGQGTLVTVSA VL: DIQMTQSPASLSVSVGETVTITCRASENIYSNLAWYQQKQGKSPQLLVYAATNLADGVPSRFSGSGSGTQYSLKINSLQSEDFGNYFCQHFWGSPWTFGGGTKLEIKR | 1.33 |  | EC50 [3]: 5.72 nM
LK-RB1-31 (antibody, human IgG4 S228P, kappa, V domains shown) VH: QVQLKESGPGLVAPSQSLSITCTVSGFSLTSYGVSWVRQPPGKGLEWLGIIWGDGSTNYHSALKSRLSISKDNSKSQVFLKLNSLQTEDTATYYCAKPNWDYYAMDYWGQGTSVTVSS VL: DIQMTQTTSSLSASLGDRVTISCRASQDISNYLNWYLQKPDGTVKLLIYYTSRLHSGVPSRFSGSGSGTDYSLTISNLEQEDIATYFCQQGITLPCTFGGGTKLEIKR | 2.91 | no binding | 
LK-RB1-32 (antibody, human IgG4 S228P, kappa, V domains shown) VH: QVQLQQSGAELAKPGASVKLSCTASGYTFTTYLMHWVKQRPAQGLEWIGYINPSNDFTKYNQKFKDKATLTADTSSSTAYMQLNSLTFEDSAVYYCARNSDYDPSYWGQGTTLTVSS VL: DIQMTQSPASLSVSVGETVTITCRASENIYSSLAWYQQKQGKSPQLLVYAATNLADGVPSRFSGSGSGTQYSLKINSLQSEDFGNYYCQHFWGTWAFGGGTKLEIKR | 2.44 | no binding | 
LK-RB1-35 (antibody, human IgG4 S228P, kappa, V domains shown) VH: DVQLQESGPGLEKPSQSLSLTCSVTGYSITRGYQWNWIRQFPGNKLEWMGYISYDGSNNYNPSLKNRISITRDASKNQFFLKLNSVTTEDTATYYCARRSYNSIDYWGQGTTLTVSS VL: DIVLTQSPATLSVTPGDSVSLSCRASQSISSNLHWYQQKSHESPRLLIKYASQSISGIPSRFSGSGSGTDFTLSINSVETEDFGMYFCQQSNSWPLTFGAGTKLELKR | 0.44 | no binding | 
LK-RB1-36 (antibody, human IgG4 S228P, kappa, V domains shown) VH: DVQLQESGPGLEKPSQSLSLTCSVTGYSITRGYQWNWIRQFPGNKLEWMGYISYDGSNNYNPSLKNRISIIRDTSKNQFFLKLNSVTTEDTATYYCARRSYNSIDYWGQGTTLTVSS VL: DIVLTQSPATLSVTPGDSVSLSCRASQSISNNLHWYQQKSHESPRLLIKYASQSISGIPSRFSGSGSGTDFTLSINSVETEDFGMYFCQQSNSWPLTFGAGTKLELKR | 0.46 | no binding | 
LK-RB1-37 (antibody, human IgG4 S228P, kappa, V domains shown) VH: QVQLQQPGAELVKPGASVKLSCKASGYTFTSYWMHWVKQRPGRGPEWIGRIDPNSGYARYNEKFKNKATLTADKPSSTADMHLSSLTSEDSAVYYCTRSFITTAEWFFDVWGTGTTVTVSS VL: DILLTQSPAILSVSPGERVSFSCRASQSIGTSIHWYQQRRNGSPRLLIKYTSESISGIPSRFSGSGSGTDFTLSINSVESEDIADYYCQQSNSWPHTFGGGTKLELKR | 2.51 | no binding | 
LK-RB1-38 (antibody, human IgG4 S228P, kappa, V domains shown) VH: DVQLQESGPGLVQPSQSLSLTCSVTGYSITSGYQWNWIRQLPGNKLEWMAYISFDGSNNYNPSLKNRISITRDTSKNQFFLKLKSVTTEDTATYYCARRDYDGVAYWGQGTLVTVSA VL: EIVLTQSPATLSVTPGDRVSLSCRASQNISNYLHWYQQKSHGSPRLIIKYASQSISGIPSRFSGSGSGTDFTLSINSVETEDFGMYFCQQSNSWPLTFGAGTKLELKR | 2.45 | no binding | 
LK-RB1-44 (antibody, human IgG4 S228P, kappa, V domains shown) VH: QVQLQQSGTELAKPGASVKLSCKASGYTFTNYWMHWIKQRPGQGLEWIGYVHPTSDYTKYNQKFKDKATLTADKSSSTAYMQLNSLTYEDSAVYYCTRSSLYDTNYVFDSWGQGTTLTVSS VL: DILLTQSPAILSVSPGERVSFSCRASQSIGRSIHWFQQRTNGSPSLLIKYASESISGIPSRFSGGGSGTDFTLSISNVESEDIADYYCQQSNNWPFTFGSGTKLEIKR | 2.79 | no binding | 
LK-RB1-45 (antibody, human IgG4 S228P, kappa, V domains shown) VH: QVQLQQSGTELARPGASVKLSCKASGYTFTNFWMHWIKQRPGQGLEWIGYVNPTSDYTKYNQKFKDKATLTADKSSSTAYMQLNSLTYEDSAVYYCTRSSLYDTNYVFDSWGQGTTLTVSS VL: DILLTQSPAILSVSPGERVSFSCRASQSIGRSIHWYQQRTNGSPRLLIKYASESISGIPSRFSGGGSGTDFTLSISNVESEDIADYYCQQSNNWPFTFGSGTKLEIKR | 1.78 | no binding | 
LK-RB1-46 (antibody, human IgG4 S228P, kappa, V domains shown) VH: EVQLQQSGPELVKPGASVKISCKTSGYTFTDYYMNWVKQSHGKSLEWIGDIYPINGDISYNQKFKGKATLTVDKSSSTVYMEIRSLTYEDSAVYYCARLAQTTSGGFDYWGQGTTLTVSS VL: DIVLTQSPTSLAVSLGQRAIISCKASQSVSFAGTSLMHWYQQKPGQQPKLLIYRASNLKAGVPTRFSGSGSRTDFTLNIHPVEEDDAATYYCQQSREYPMYTFGGGTKLEIKR | 0.97 | no binding | 
LK-RB1-50 (antibody, human IgG4 S228P, kappa, V domains shown) VH: QVQLKQSGPGLVQPSQSLSITCTVSGFSLTSYGVHWVRQSPGKGLEWLGVIWRGGNTDYNAPFVSRLSITKDNSQSQVFFKMNSLEADDTAIYYCAKNSLDVYSSWYFDVWGTGTTVTVSS VL: QIVLSQSPAILSAFPGEKVTMTCRASSSVSFMHWYQQKPGSSPKPWIYATSNLASGVPARFSGSGSGTSYSLTISRVEAEDAATYYCQQWSSNPLTFGAGTKLELKR | 2.01 |  | EC50 [3]: 605 nM
LK-RB1-56 (antibody, human IgG4 S228P, kappa, V domains shown) VH: QVQLKQSGPGLVQPSQSLSITCSVSGFSLTNYGVHWVRQSPGKGLEWLGVIWRGGSTDNNAAFMSRLSITKDNSKSQVFFKMNSLQADDTAIYYCAKNSDFYGSSWYFDVWGTGTTVTVSS VL: QIVLSQSPAILSASPGEKVTMTCRASSSVSFMHWYQQKPGSSPKPWIYATSNLASGVPARFSGSGSGTSYSLTISRVEAEDAATYYCQQWSRNPPTFGAGTKLELKR | 1.24 | no binding | 
LK-RB1-58 (antibody, human IgG4 S228P, kappa, V domains shown) VH: QVQLKQSGPGLVQPSQSLSITCTVSGFSLTTYGVHWVRQSPGKGLEWLGVIWRGGSTDYNAAFMSRLSITKDNSKSQVFFRMNSLQADDTARYYCAKNSLYYGSSWYFDVWGTGTTVTVSS VL: QIVLSQSPAILSASPGEKVTMTCRASSSVSFMHWYQQKPGSSPKPWIYATSNLASGVPARFSGSGSGTSYSLTISRVEAEDAATYYCQQWSSNPPTFGGGTKLEIKR | 5 | no binding | 
LK-RB1-40 (antibody, human IgG4 S228P, kappa, V domains shown) VH: DVQLQESGPGLVQPSQSLSLTCSVTGYSITSGYQWNWIRQLPGNKLEWMAYISFDGSNNYNPSLKNRISITRDTSKNQFFLKLKSVTTEDTATYYCARRDYDGVAYWGQGTLVTVSA VL: DVLMTQTPLSLPVSLGDQASISCRSSQSIVHSNGNTYLEWYLQKPGQSPKLLIYKVSNRFSGVPDRFSGSGSGTDFTLKISRVEAEDLGVYYCFQGSHVPWTFGGGTKLEIKR |  | no binding | binding result [2]: no binding
LK-RB1-43 (antibody, human IgG4 S228P, kappa, V domains shown) VH: EFQLQQSGPELMKPGASVKISCKASGYSFTDYNMNWVKQSNGKSLEWIGIIDPNYGTTTYNQKFKGRATLTVDQSSNTAYMQLNSLTSEDSAVYYCAREGRYSWFAYWGQGTLVTVSA VL: DIQMTQSPGALSVSVGETVTITCRASENINSNLAWYQQKQGKSPQLLVYAATNLADGVPSRFSGSGSGTQYSLKINSLQSEDFGSYHCQHFWGTPFTFGSGTKLEIKR |  | no binding | 
LK-RB1-51 (antibody, human IgG4 S228P, kappa, V domains shown) VH: QVQIQQSGAELVKPGASVKLSCKASGYTFTEFPIHWIKQRSGQGLEWIGWFYPGSDNMNYNEKFKDKATLTADKSSSTVYMELSRLTSEDSAVYFCARHENAYFYAMDYWGQGTSVTVSS VL: ENVLTQSPAIMSASLGEKVTMSCRASSSVNYMYWYQQKSDASPKIWIYYTSNLAPGVPARFSGSGSGNSYSLTISSMEGEDAATYYCQQFTSSPFTFGTGTKLEIKR |  | no binding | binding result [2]: no binding
LK-RB1-54 (antibody, human IgG4 S228P, kappa, V domains shown) VH: DVQLQESGPGLVKPSQSLSLTCSVTGYSITSGFYWNWIRQFPGNKLEWMGHISYDGTNNYNPSLKNRISITRDTSKNLFFLKLNSVTTEDTATFHCARGGYGGSYGFDYWGQGTTLTVSS VL: ENVLTQSPAIMSASLGEKVTMSCRASSSVNYMYWYQQKSDASPKLWIYYTSNLAPGVPVRFSGSGSGNSYSLTISSMEGEDAATYYCQQFTSSPWTFGGGTKLEIKR |  | no binding | 
